Results on seven variants are retold here after the supplement of paper PMC12783771.

To fix the notation:
B1: library; numbered along this chain (parent)
chain: MNIQIGELAKRTACPVVTIRFYEQEGLLPPPGRSRGNFRLYGEEHVERLQFIRHCRSLDMPLSDVRTLLSYRKRPDQDCGEVNMLLDEHIRQVESRIGALLELKHHLVELREACSGARPAQSCGILQGLSDCVCDTRGTTAHPSD

Variants of B1 are the subject of data set [1]. Description: sfGFP reporter fluorescence (15 h) (µM FITC); higher = higher leak. The settings on record: library round: Round 0; ligand: none. The method, boiled down: (§1)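 Values are endpoint sfGFP fluorescence given as µM FITC equivalents. Fluorescence was read at 485/528 nm on a Synergy Neo2, and FITC standard curves were prepared in 50 mM sodium borate pH 8.5. Reactions of 1 μL combined BL21 Star (DE3) PANOx-SP extract, pPbrR-sfGFP reporter, 30 μg/mL GamS and linear PbrR templates (PCR-made, Echo-normalized to 5 nM), with 1 µM lead chloride, 30 µM zinc acetate or no metal, for 15 hr at 30 °C.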

The variants in data set [2] derive from B1. Description: sfGFP reporter fluorescence (15 h) (µM FITC); higher = stronger transcriptional activation. The following applies: library round: Round 0. In short, it runs like this:
as §1

± gives the standard deviation of the averaged measurements.

Turning to MNIQIGELAKRTACPVVTIRFYEQEGLLPPPGRSRGNFRLYGEEHVERLQFIRHCRSLDMPLSDVRTLLSYRKRPDQDCGEVNMLLDEHIRQVESRIGALLELKHHLVELREACSGARPAQSCGILQGLSDCVCDTRGTTAHFSD [P143F], the sfGFP reporter fluorescence in data set [1] was 0.0568 ± 0.0015; in data set [2] (ligand: 1 µM Pb), 0.0819 ± 0.0039; in data set [2] (ligand: 30 µM Zn), 0.777 ± 0.052.

In the case of MAIQIGELAKRTACPVVTIRFYEQEGLLPPPGRSRGNFRLYGEEHVERLQFIRHCRSLDMPLSDVRTLLSYRKRPDQDCGEVNMLLDEHIRQVESRIGALLELKHHLVELREACSGARPAQSCGILQGLSDCVCDTRGTTAHPSD [N2A], the sfGFP reporter fluorescence in data set [1] came to 0.0517 ± 0.001; in data set [2] (ligand: 1 µM Pb), 0.0614 ± 0.0065; in data set [2] (ligand: 30 µM Zn), 0.801 ± 0.036.

Turning to MNIQIGELAKRTACPVVTIRFYEQEGLLPPPGRSRGNFRLYGEEHVERLQFIRHCRSLDMPLSDVRTLLSYRKRPDQDCGEVNMLLDEHIRQVESRIGALLELKHHLVELQEACSGARPAQSCGILQGLSDCVCDTRGTTAHPSD [R111Q], the sfGFP reporter fluorescence in data set [1] came to 0.0572 ± 0.001; in data set [2] (ligand: 1 µM Pb) it was 0.0618 ± 0.0013; in data set [2] (ligand: 30 µM Zn), 0.275 ± 0.0083.

On to MNIQIGELAKRTACPVVTIRFYEQEGLLPPPGRSRGNFRLYGEEHVERLQFIRHCRSLDMPLSDVRTLLSYRKRPDQDCGEVNMMLDEHIRQVESRIGALLELKHHLVELREACSGARPAQSCGILQGLSDCVCDTRGTTAHPSD [L85M], for which the sfGFP reporter fluorescence in data set [1] was 0.05754 ± 0.00052; in data set [2] (ligand: 1 µM Pb), 0.06945 ± 0.00026; in data set [2] (ligand: 30 µM Zn) it was 0.597 ± 0.017.

On to MNIQIGELAKRTACPVVTIRFYEQEGLLPPPGNSRGNFRLYGEEHVERLQFIRHCRSLDMPLSDVRTLLSYRKRPDQDCGEVNMLLDEHIRQVESRIGALLELKHHLVELREACSGARPAQSCGILQGLSDCVCDTRGTTAHPSD [R33N], for which the figures for the sfGFP reporter fluorescence in data set [1], in data set [2] (ligand: 1 µM Pb) and in data set [2] (ligand: 30 µM Zn) were 0.0632 ± 0.00078, 0.0817 ± 0.028 and 0.06084 ± 0.00052, respectively.

Turning to MNIQIGELAKRTACPVVTIRFYEQEGLLPPPGRSRGNFRLYGEEHVERLQFIRHCRSLDMPLSDVRTLLSYRKRPDQDCGEVNMLLDEHIRQVESRIGALLELKHHLVELREACSGARPAQSCGILQGLSDCVCDTRATTAHPSD [G138A], the sfGFP reporter fluorescence in data set [1] came to 0.0597 ± 0.001; in data set [2] (ligand: 1 µM Pb) it was 0.0724 ± 0.0018; in data set [2] (ligand: 30 µM Zn), 0.697 ± 0.17.

Take MNIQIGELAKRTACPVVTIRFYEQEGLLPPPGRSRGNFRLYGHEHVERLQFIRHCRSLDMPLSDVRTLLSYRKRPDQDCGEVNMLLDEHIRQVESRIGALLELKHHLVELREACSGARPAQSCGILQGLSDCVCDTRGTTAHPSD [E43H]: the sfGFP reporter fluorescence in data set [1] is 0.0669 ± 0.00078; in data set [2] (ligand: 1 µM Pb), 0.0891 ± 0.013; in data set [2] (ligand: 30 µM Zn), 0.629 ± 0.0098.
